# Positions count from the first letter of the chain named.
# B1: anti-Clec12A antibody B (antibody, V domains shown)
# VH: QVQLVESGGGVVQPGRSLRLSCAASGFTFSSYGMHWVRQAPGKGLEWVAVISYDGSDKYYVDSVKGRFTISRDNSKNTLYLHMNSLRAEDTAVYYCARDKGYYFDYWGQGTLVTVSS
# VL: EIVMTQSPATLSLSPGERATLSCRASQSVGNRYLSWYQQKPGQAPRLLIYGASTRATGIPARFSGSGSGTDFTLTISSLQPEDFAVYYCQQDYNLPLTFGGGTKVEIK
# B2: anti-Clec12A antibody C (antibody, V domains shown)
# VH: B1 VH with Y60S, V61A, T69N, H82Q, K100G, G101S, Y102R
# VL: B1 VL with V3F, G30H, N31S, R32K, R46S, L97I, G101Q, K104R, V105L
# B3: anti-Clec12A antibody A (antibody, V domains shown)
# VH: QVQLQESGPGLVKPSETLSLTCTVSGGSISTYYWSWIRQPPGKGLEWIGYIYYSGSTKYNPSLKSRVTISVDTSKNLFSLKLSSVTAADTAVYYCAREDYYGSGSPFDYWGQGTLVTVSS
# VL: IQMTQSPSSLSASVGDRVTITCRASQGIRYDLGWYQQKPGKAPKLLIYAASSLQSGVPSRFSGSGSGTDFTLTISSLQPEDFATYYCLQDYNFPRTFGQGTKVEIK
# Biological target: Clec12A on cells (Clec12A over-expressing CHO-S cells; U937 cells endogenously expressing Clec12A) (UniProt Q5QGZ9)
# Sequence (Q5QGZ9 whole entry): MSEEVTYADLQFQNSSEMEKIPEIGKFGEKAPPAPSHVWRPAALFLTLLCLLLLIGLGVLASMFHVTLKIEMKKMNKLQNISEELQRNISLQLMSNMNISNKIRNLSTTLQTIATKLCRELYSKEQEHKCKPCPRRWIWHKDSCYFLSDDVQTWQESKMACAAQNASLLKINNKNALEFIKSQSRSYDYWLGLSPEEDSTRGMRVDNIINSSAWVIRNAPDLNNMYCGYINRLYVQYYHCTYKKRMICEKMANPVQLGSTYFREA
# Test: flow cytometry, serial dilution, on U937 cells endogenously expressing Clec12A
row,EC50 [nM],Binder
1,3.36,B1
2,3.35,B2
3,0.621,B3

# Source: patent publication US20230111279A1
